Measured values from publication PMC2854237 (Insect biochemistry and molecular biology, 2010).
Read-outs that look alike come from different tables or passages of the source.

Experiments:
[1] = target: D. melanogaster ovulin (Acp26Aa), endogenous in male accessory glands (D. melanogaster (endogenous in male accessory glands)); test: non-reducing SDS-PAGE and Western blot of SDS-stable complexes
[2] = target: D. melanogaster ovulin (Acp26Aa), endogenous in male accessory glands (D. melanogaster (endogenous in male accessory glands)); test: as above; remark: listed apart in the source
[3] = target: D. pseudoobscura ovulin C-terminal fragment, 6xHis-tagged (D. pseudoobscura); test: cross-linking
[4] = target: D. yakuba ovulin C-terminal fragment, 6xHis-tagged (D. yakuba); test: cross-linking
[5] = target: the molecule itself; test: non-reducing SDS-PAGE and Western blot of SDS-stable complexes
cross-linking = target: the molecule itself; test: cross-linking

**Q.** Which results are given for “D. melanogaster ovulin (Acp26Aa), endogenous in male accessory glands (natural protein)”?
**A.** stoichiometry N [1]: 2; stoichiometry N [2]: 2

**Q.** Which stoichiometry N [3] does the source give for “D. pseudoobscura ovulin C-terminal fragment, 6xHis-tagged (domain or fragment)” here?
**A.** 2

**Q.** How did the stoichiometry N [4] turn out when “D. yakuba ovulin C-terminal fragment, 6xHis-tagged (domain or fragment)” was run?
**A.** 2

B1: D. simulans ovulin (putative ortholog), endogenous in male accessory glands (natural protein, UniProt P33737 19-255, looked up)
chain: NCDGEHQLDSSMDLKSDSTKSAVLKNVAPKNDATQAEIAKDDVALKSGKKGDYVMDIDVCTMPLDDYPINNSKSRKNSSTLPSQILTDKPNQGSNQIALKALKHRLLMEQNNNLFLRNHSVSLMNEIEARKTDIIQARQLNIDLELELEALKRKLSEMNAQNARKPTKSCKKRPSKDIAPPANQLQEVIVKNTYRNKYLTLLTQLAQKINYEIANVNNPATDVPTGKSPSEGNPSTT
**Q.** Which “stoichiometry N” value [5] does the source give for B1 here?
**A.** 2

B2: Wild-type D. melanogaster ovulin C45 (C-terminal fragment), 6xHis- and Xpress-tagged (domain or fragment, UniProt P10333 219-264, looked up)
chain: NVRNTYRNKYLTLLKELSQKINNEIAKVATDVPTETNPSQGNLPTL
**Q.** B2 was tested. Which “stoichiometry N” value (cross-linking) did it give?
**A.** 2

B3: D. simulans ovulin C-terminal fragment, 6xHis-tagged (domain or fragment, UniProt P33737 156-255, looked up)
chain: RQLNIDLELELEALKRKLSEMNAQNARKPTKSCKKRPSKDIAPPANQLQEVIVKNTYRNKYLTLLTQLAQKINYEIANVNNPATDVPTGKSPSEGNPSTT
**Q.** For B3, which “stoichiometry N” value (cross-linking) is on record?
**A.** 2
